Source: patent US11618906B2, “Hydroxylation techniques” (HYPHA DISCOVERY LTD., priority 2018, dated 2023)
Substitutions are numbered along the chain they refer to. Numbers in names are those of the source.

B1: aluC09M31: cytochrome P450 aluC09 mutant T291S; amino acid sequence SEQ ID NO: 36 (protein, listed as Amycolatopsis lurida)
chain: MTDVEETTATLPLARKCPFSPPPEYERLRRESPVSRVGLPSGQTAWALTRLEDIREMLSSPHFSSDRQSPSFPLMVARQIRREDKPFRPSLIAMDPPEHSRARRDVVGEFTVKRMKALQPRIQQIVDEHLDALLAGPKPADLVQALSLPVPSLVICELLGVPYSDHEFFQSCSSRMLSREVTAEERMTAFEQLENYLDELVTKKEANATEDDLLGRQILKQRETGEADHGELVGLAFLLLIAGHETTANMISLGTVTLLENPDQLAKIKADPGKTLAAIEELLRVFTIAESATSRFATADVEIGGTLIRAGEGVVGLSNAGNHDPDGFENPDTFDIERGARHHVAFGFGVHQCLGQNLARLELQIVFDTLFRRVPGLRIAVPVDELPFKHDSTIYGLHALPVTW
B2: aluC09M36: cytochrome P450 aluC09 mutant T291F; amino acid sequence SEQ ID NO: 56 (protein, listed as Amycolatopsis lurida)
chain: B1 chain with S291F
B3: aluC09M37: cytochrome P450 aluC09 mutant T291W; amino acid sequence SEQ ID NO: 60 (protein, listed as Amycolatopsis lurida)
chain: B1 chain with S291W

Key:
Format in all cases: biochemical
[1] = Metabolism of bosentan by P450 aluC09 and mutants; conditions: percent of substrate being converted; 0.125 mg/ml, 27° C., 16-20 hours; [CYP] per enzyme as in Table 8
Summary of the method: (§1)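 Biotransformation: CYP aluC09 mutant + ferredoxin aluF03 + reductase SCF15A, 0.125 mg/ml substrate, KPi 50 mM pH 7.4, MgCl2 5 mM, G6P/NADP/G6PDH recycling; 27° C, 16-20 h shaking; MeCN quench, UPLC-MS conversion.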

[2] = Metabolism of celecoxib by P450 aluC09 and mutants; conditions: percent of substrate being converted; 0.125 mg/ml, 27° C., 16-20 hours; [CYP] per enzyme as in Table 8
Summary of the method: as §1

[3] = Metabolism of tivantinib by P450 aluC09 and mutants; conditions: percent of substrate being converted; 0.125 mg/ml, 27° C., 16-20 hours; [CYP] per enzyme as in Table 8
Summary of the method: as §1

[4] = Metabolism of epothilone B by P450 aluC09 and mutants; conditions: percent of substrate being converted; 0.125 mg/ml, 27° C., 16-20 hours; [CYP] per enzyme as in Table 8
Summary of the method: as §1

[5] = Metabolism of ruxolitinib by P450 aluC09 and mutants; conditions: percent of substrate being converted; 0.125 mg/ml, 27° C., 16-20 hours; [CYP] per enzyme as in Table 8
Summary of the method: as §1

[6] = Hydroxylation / de-N-ethylation of napropamide catalysed by cytochrome P450 aluC09 and mutants; conditions: for Desethyl Napropamide (1.62 min) / Desethyl-hydroxy-Napropamide (1.41 min) / Hydroxy-Napropamide (1) (1.53 min) / Hydroxy-Napropamide (2), (1.52 min) / M-2Da (unidentified) (1.89 min) / Napropamide (substrate): % by UV peak area at 275 nm, 0.125 mg/ml substrate, 27° C., 16-20 hours; for Hydroxylated Ratio 2:1: napropamide, ratio of UV peak areas
Summary of the method: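 Conversion of napropamide (0.125 mg/ml) to hydroxylated and de-ethylated metabolites was measured by UPLC-MS after acetonitrile extraction. Reactions ran 16-20 h at 27° C in pH 7.4 potassium phosphate (50 mM) with 5 mM MgCl2, 1 mM NADP, 5 mM G6P and 2 UN/ml G6PDH. Enzymes were lyophilised P450 aluC09 variants, ferredoxin aluF03 and ferredoxin reductase SCF15A.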

[7] = Hydroxylation of aceclofenac catalysed by cytochrome P450 aluC09 and mutants; conditions: for Aceclofenac (Substrate) (1.80 mins) / Dihydroxy-Aceclofenac (1.42 mins) / Hydroxy-Aceclofenac (1) (1.64 min) / Hydroxy-Aceclofenac (2) (1.60 min): % by UV peak area at 275 nm, 0.125 mg/ml substrate, 27° C., 16-20 hours; for Hydroxylated Ratio 2:1: aceclofenac, ratio of UV peak areas at 275 nm
Summary of the method: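 Conversion was assessed by UPLC-MS (UV and MS detection) after acetonitrile extraction of reactions run 16-20 h at 27° C, shaking. Reactions contained substrate at 0.125 mg/ml, P450 mutant plus ferredoxin and reductase partners, 1 mM NADP with glucose-6-phosphate regeneration, in phosphate buffer pH 7.4.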

[8] = Metabolism of BIRB796 by P450 aluC09 and mutants; conditions: percent of substrate being converted; 0.125 mg/ml, 27° C., 16-20 hours; [CYP] per enzyme as in Table 8
Summary of the method: as §1

[9] = Metabolism of ritonavir by P450 aluC09 and mutants; conditions: percent of substrate being converted; 0.125 mg/ml, 27° C., 16-20 hours; [CYP] per enzyme as in Table 8
Summary of the method: as §1

[10] = O-demethylation of indomethacin catalysed by cytochrome P450 aluC09 and mutants; conditions: % by UV peak area at 275 nm; 0.125 mg/ml substrate, 27° C., 16-20 hours
Summary of the method: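 Conversion was quantified by UPLC-UV/MS after acetonitrile extraction of 16-20 h, 27° C. shaken reactions. These contained 0.125 mg/ml substrate, mutant P450 with partner ferredoxin and reductase, 1 mM NADP plus 5 mM G6P and 2 U/ml G6PDH, in pH 7.4 phosphate with 5 mM MgCl2.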

[11] = Metabolism of buparvaquone by P450 aluC09 and mutants; conditions: percent of substrate being converted; 0.125 mg/ml, 27° C., 16-20 hours; [CYP] per enzyme as in Table 8
Summary of the method: as §1

[12] = Hydroxylation of diclofenac catalysed by cytochrome P450 aluC09 and mutants (UPLC-PDA-MS); conditions: for 4′,5-dihydroxy-diclofenac 1.38 mins / 4′-hydroxy-diclofenac (1) 1.62 mins / 5-hydroxy-diclofenac (2) 1.58 mins / Diclofenac (Substrate) 1.81 mins: % by UV peak area at 275 nm, 0.125 mg/ml substrate, 27° C., 16-20 hours; for Hydroxylated Ratio hydroxy 1:hydroxy 2: diclofenac, ratio of UV peak areas at 275nm
Summary of the method: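 Conversion of diclofenac (0.125 mg/ml) to hydroxy metabolites measured by UPLC with UV and MS detection, identities confirmed by authentic samples. Reactions used P450 aluC09 variants with ferredoxin aluF03, reductase SCF15A and an NADP/G6P/G6PDH recycling system, pH 7.4 phosphate, 27° C, 16-20 hours.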

[13] = Metabolism of valsartan by P450 aluC09 and mutants; conditions: percent of substrate being converted; 0.125 mg/ml, 27° C., 16-20 hours; [CYP] per enzyme as in Table 8
Summary of the method: as §1

[14] = Metabolism of 4-pyrrolidylacetophenone by P450 aluC09 and mutants; conditions: percent of substrate being converted; 0.125 mg/ml, 27° C., 16-20 hours; [CYP] per enzyme as in Table 8
Summary of the method: as §1

[15] = Metabolism of tofacitinib by P450 aluC09 and mutants; conditions: percent of substrate being converted; 0.125 mg/ml, 27° C., 16-20 hours; [CYP] per enzyme as in Table 8
Summary of the method: as §1

[16] = Hydroxylation of flufenamic acid catalysed by cytochrome P450 aluC09 and mutants; conditions: for Flufenamic Acid (Substrate) 1.93 mins / Hydroxy-Flufenamic Acid (1) 1.69 mins / Hydroxy-Flufenamic Acid (2) 1.65 mins: % by UV peak area at 275 nm, 0.125 mg/ml substrate, 27° C., 16-20 hours; for Hydroxylated Ratio 1:2: flufenamic acid, ratio of UV peak areas at 275 nm
Summary of the method: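 Conversion measured by UPLC-MS (UV and MS) after acetonitrile extraction, following 16-20 h shaking at 27° C. Reaction: 0.125 mg/ml substrate, P450 mutant plus ferredoxin aluF03 and reductase SCF15A, 5 mM G6P, 1 mM NADP, 2 U/ml G6PDH, pH 7.4 phosphate with 5 mM MgCl2.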

Molecule	% conversions (avg) Bosentan [1] [%]	% conversions (avg) Celecoxib [2] [%]	% conversions (avg) Tivantinib [3] [%]	% conversions (avg) Epothilone B [4] [%]	% conversions (avg) Ruxolitinib [5] [%]	Desethyl Napropamide (1.62 min) [6] [%]	Desethyl-hydroxy-Napropamide (1.41 min) [6] [%]	Hydroxy-Napropamide (1) (1.53 min) [6] [%]	Hydroxy-Napropamide (2), (1.52 min) [6] [%]	M-2Da (unidentified) (1.89 min) [6] [%]	Napropamide (substrate) [6] [%]	Hydroxylated Ratio 2:1 [6]	Aceclofenac (Substrate) (1.80 mins) [7] [%]	Dihydroxy-Aceclofenac (1.42 mins) [7] [%]	Hydroxy-Aceclofenac (1) (1.64 min) [7] [%]	Hydroxy-Aceclofenac (2) (1.60 min) [7] [%]	Hydroxylated Ratio 2:1 [7]	% conversions (avg) BIRB796 [8] [%]	% conversions (avg) Ritonavir [9] [%]	Indomethacin (1.74 mins) [10] [%]	further results
B1	99	3.6	56	35.3	41.7	44.8	4.6	2.4	5.1	7.0	37.9	2.1	12.3	43.1	8.5	36.1	4.2	15.3	73.5	84.8	O-demethyl-Indomethacin (1.52 mins) [10]: 15.2%; % conversions (avg) Buparvaquone [11]: 11.3%; 4′,5-dihydroxy-diclofenac 1.38 mins [12]: 3.3%; 4′-hydroxy-diclofenac (1) 1.62 mins [12]: 43.3%; 5-hydroxy-diclofenac (2) 1.58 mins [12]: 22.8%; Diclofenac (Substrate) 1.81 mins [12]: 32.3%; Hydroxylated Ratio hydroxy 1:hydroxy 2 [12]: 1.9; % conversions (avg) Valsartan [13]: 33.9%; % conversions (avg) 4-pyrrolidylacetophenone [14]: 4.9%; % conversions (avg) Tofacitinib [15]: 1.5%; Flufenamic Acid (Substrate) 1.93 mins [16]: 89.1%; Hydroxy-Flufenamic Acid (1) 1.69 mins [16]: 6.8%; Hydroxy-Flufenamic Acid (2) 1.65 mins [16]: 4.1%; Hydroxylated Ratio 1:2 [16]: 1.7
B2	99.5	5.7	30.4	62.3	42.1	40.5	3.1	1.2	3.5	6.3	46.8	3.0	9.3	44.6	7.2	38.9	5.4	20	73.8	80.3	O-demethyl-Indomethacin (1.52 mins) [10]: 19.7%; % conversions (avg) Buparvaquone [11]: 9.5%; 4′,5-dihydroxy-diclofenac 1.38 mins [12]: 3.6%; 4′-hydroxy-diclofenac (1) 1.62 mins [12]: 42.8%; 5-hydroxy-diclofenac (2) 1.58 mins [12]: 23.0%; Diclofenac (Substrate) 1.81 mins [12]: 33.0%; Hydroxylated Ratio hydroxy 1:hydroxy 2 [12]: 1.9; % conversions (avg) Valsartan [13]: 45.7%; % conversions (avg) 4-pyrrolidylacetophenone [14]: 6.8%; % conversions (avg) Tofacitinib [15]: 2.4%; Flufenamic Acid (Substrate) 1.93 mins [16]: 89.8%; Hydroxy-Flufenamic Acid (1) 1.69 mins [16]: 7.7%; Hydroxy-Flufenamic Acid (2) 1.65 mins [16]: 2.6%; Hydroxylated Ratio 1:2 [16]: 3.0
B3	98.6	7.2	31	50.2	34.2	40.1	3.3	1.6	3.3	6.0	47.3	2.1	4.2	56.0	4.5	35.3	7.8	10	64.1	89.0	O-demethyl-Indomethacin (1.52 mins) [10]: 11.0%; % conversions (avg) Buparvaquone [11]: 10.5%; 4′,5-dihydroxy-diclofenac 1.38 mins [12]: 1.9%; 4′-hydroxy-diclofenac (1) 1.62 mins [12]: 31.4%; 5-hydroxy-diclofenac (2) 1.58 mins [12]: 15.9%; Diclofenac (Substrate) 1.81 mins [12]: 51.8%; Hydroxylated Ratio hydroxy 1:hydroxy 2 [12]: 2.0; % conversions (avg) Valsartan [13]: 41%; % conversions (avg) 4-pyrrolidylacetophenone [14]: 7.3%; % conversions (avg) Tofacitinib [15]: 0.9%; Flufenamic Acid (Substrate) 1.93 mins [16]: 91.3%; Hydroxy-Flufenamic Acid (1) 1.69 mins [16]: 6.4%; Hydroxy-Flufenamic Acid (2) 1.65 mins [16]: 2.2%; Hydroxylated Ratio 1:2 [16]: 2.9
